According to US20210379110A1 (LENTIGEN TECHNOLOGY, published 2021):

Target: T1, recombinant human CD22 (labeled) (human, UniProt P20273 20-687, limits assumed)
T1 construct: Labeled antigen titrated on yeast; It may be CD22-Fc; also called labeled CD22
T1 sequence (looked up): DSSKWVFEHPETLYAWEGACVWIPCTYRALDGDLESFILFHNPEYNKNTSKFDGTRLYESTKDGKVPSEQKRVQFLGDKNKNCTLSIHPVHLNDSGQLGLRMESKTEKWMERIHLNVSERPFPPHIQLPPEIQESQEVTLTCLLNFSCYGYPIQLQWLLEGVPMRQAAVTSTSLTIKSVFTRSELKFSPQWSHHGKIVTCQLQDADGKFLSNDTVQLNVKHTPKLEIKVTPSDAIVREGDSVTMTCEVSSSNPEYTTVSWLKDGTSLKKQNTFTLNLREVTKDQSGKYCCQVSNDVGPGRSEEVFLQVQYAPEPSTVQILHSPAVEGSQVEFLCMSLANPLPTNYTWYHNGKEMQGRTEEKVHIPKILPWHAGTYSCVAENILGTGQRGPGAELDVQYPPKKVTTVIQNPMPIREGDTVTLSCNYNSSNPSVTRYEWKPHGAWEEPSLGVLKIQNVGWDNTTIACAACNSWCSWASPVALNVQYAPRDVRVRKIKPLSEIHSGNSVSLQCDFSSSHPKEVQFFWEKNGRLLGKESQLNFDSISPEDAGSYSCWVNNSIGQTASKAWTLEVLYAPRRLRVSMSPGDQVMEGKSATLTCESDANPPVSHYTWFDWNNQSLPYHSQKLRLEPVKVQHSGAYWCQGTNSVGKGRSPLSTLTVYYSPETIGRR
Test: flow cytometry of yeast-displayed scFv with decreasing amounts of labeled CD22
Procedure: After electroporation, the resulting mutant library was then grown overnight at 30° C. for 16 hours in SDCAA medium and then switched into SGCAA medium at 30° C. for another 16 hours. The mutant library was then sorted through MACS (immunomagnetic column, Miltenyi Biotec) with CD22-Fc as the capture antigen to downsize the library and to increase the population of mutants that could bind to CD22-Fc. The strongest binders were then selected by double staining the pools with Anti-c-Myc-Alexa 488 and […] and selecting for the binders that had the highest binding affinities as well as c-Myc expression levels. This process was then repeated two more times, until flow cytometry of yeast particles with fluorescently tagged antigen yielded average binding affinities of the mutant pools that were increased over the starting construct. Binding affinities were estimated by flow cytometry of yeast pools using decreasing amounts of labeled CD22.

B1: human anti-CD22 ScFv binder 16P17 (scFv, V domains shown)
VH: QVQLQQSGPGLVKHSQTLSLTCAISGDSVSSNSAAWNWIRQSPSRGLEWLGRTYYRSKWYNDYAVSVKSRITINPDTSKNQFSLQLNSVTPEDTAVYYCAQEVEPHDAFDIWGQGTMVTVSS
VL: DIQMTQSPSSVYASVGDKVTITCRASQDVSGWLAWYQQKPGLAPQLLISGASTLQGEVPSRFSGSGSGTDFTLTISSLQPEDFATYYCQQAKYFPYTFGQGTKLEIK
notes: In the CARs the order is VH-(GGGGS)3-VL; also called CD22 scFv 16P17
With B1 the EC50 was under 0.01 µg/mL.
